Test results: patent US7189515

B1: M1-10 (Fab)
heavy: QVQLVQSGGGLVHPGGSLRLSCEGSGFIFRNHPIHWVRQAPGKGLEWVSVSGIGGDTYYADSVKGRFSISRDNAKNSLYLQMNSLRAEDMAVYYCAREYYYGSGSYRVDYYYYGMDVWGQGTTVTVSSASTKGPSVFPLAPSSKSTSGGTAALGCLVKDYFPEPVTVSWNSGALTSGVHTFPAVLQSSGLYSLSSVVTVPSSSLGTQTYICNVNHKPSNTKVDKKAEPKSHHHHHH
light: not shown
notes: also called monoclonal human antibody M1-10; M1_10H
B2: M1-21 (Fab)
heavy: QVQLVQSGGGVVQPGKSLRLSCAASGFTFSYYGMHWVRQVPGKGLEWVAAVWYDGSTTYSPDSVKGRFTISRDDSKNTLYLQMSSLRAEDTAVYYCARDRVGLFDYWGQGTLVTVSSASTKGPSVFPLAPSSKSTSGGTAALGCLVKDYFPEPVTVSWNSGALTSGVHTFPAVLQSSGLYSLSSVVTVPSSSLGTQTYICNVNHKPSNTKVDKKAEPKSHHHHHH
light: not shown
notes: also called monoclonal antibody M1-21; M1_21H

Molecular target: T1, mature human interleukin-8 with C-terminal hexahistidine (human, UniProt P10145 21-99, biotin-XX (NHS ester labelling) in the affinity determination of Example 21; unlabelled in Examples 27 and 34)
T1 construct: mature; also called IL-8; IL8
T1 sequence: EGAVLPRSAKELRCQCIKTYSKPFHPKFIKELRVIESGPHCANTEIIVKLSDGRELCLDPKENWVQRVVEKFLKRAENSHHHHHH
Assay: BIACORE two-site assay, blank-subtracted; IL-8 held by primary antibody (competitor) M1-10
Experimental: A BIACORE® 3000 instrument (Biacore AB, Uppsala, Sweden) was used to measure the epitope binding.
Each antibody was diluted to 100 µg/mL and the IL-8 was diluted to 1 µM in 10 mM N-2-hydroxyethylpiperazine-N'-2-ethane-sulfonic acid, 150 mM sodium chloride, 3 mM EDTA, 0.005% polysorbate 20, pH 7.4 (HBS-EP, Biacore AB, Uppsala, Sweden). […] IL-8 (10 µL) was then bound to the primary antibody in all 4 channels. One secondary antibody (10 µL) was passed through one channel each. The resonance units of the secondary antibodies were measured 20 seconds after the injection was over. Blank resonance unit values for each primary/secondary antibody combination were obtained by injecting HBS-EP instead of IL-8 and these were subtracted from the resonance units measured for the corresponding primary/secondary antibody pairing that was contacted with IL-8. Blocking antibody injections were not done.

Binder | Resonance Units
B1 | -17 RU
B2 | 706 RU
